# In patent US20130157932A1, “NGAL AND URINARY TRACT INFECTION” (The Trustees of Columbia University in the City of New York, priority 2010, published 2013):
# Entries after “also recorded” stand apart in the source; their conditions may differ.
# B1: Neutrophil Gelatinase Associated Lipocalin (NGAL)-Siderocalin (Scn) (protein, UniProt P11672 21-200, looked up)
# Neutrophil …: QDSTQNLIPAPSLLTVPLQPDFRSDQFRGRWYVVGLAGNAVQKKTEGSFTMYSTIYELQENNSYNVTSILVRDQDQGCRYWIRTFVPSSRAGQFTLGNMHRYPQVQSYNVQVATTDYNQFAMVFFRKTSENKQYFKITLYGRTKELSPELKERFTRFAKSLGLKDDNIIFSVPTDQCIDN
# modifications: recombinant, E. coli
# notes: Recombinant mouse NGAL-Scn protein produced in BL21 E. coli
# Experiments:
# [1] = tested on: Ngal expression in the kidney; assay: Kidney Ngal expression (QPCR) after lipid A/LPS in reciprocal kidney cross-transplants; assay type: in vivo, mouse; conditions: 1 mg/kg, vs untreated cross transplant, n=3
# Description: To determine whether uNGAL originated from the kidney in a TLR-dependent fashion, kidney transplantation between Tlr-4-mutant CH3/HeJ mice and wild type CH3/HeOuJ mice was performed. To evaluate the contribution of TLR signaling to NGAL expression a cross-transplant model using TLR mutants and systemic administration of LPS as a positive control was used. The CH3/HeJ kidneys from the LPS-insensitive mice were transplanted into CH3/HeOuJ LPS-sensitive (control) mouse bodies, and vice versa. Two weeks after graft maturation, when uNGAL and sCr had stabilized to normal values, a low dose of lipid A (1 mg/kg of body weight) was administered to induce Ngal expression in the kidney (FIG. 4a). […] It is not surprising that there was some Ngal induction in the knockout (KO) kidney because CH3/HeJ are partial KOs and it has also been previously shown that lipid A can signal through the MyD88-dependent pathway without a functioning Tlr4. […]
# To identify elements of the pathway that detect UPEC, we evaluated whether IC could respond to a low dose of LPS (i.p. 1 mg kg^−1), a TLR4 agonist. […]
# Surgical cross-transplants (1, 44) were monitored for two weeks until serum creatinine stabilized to 0.2 mg dL^−1 and uNGAL-Scn was undetectable prior to ip challenge with LPS (1 mg kg^−1).
# [2] = tested on: NGAL-Scn expression; assay: NGAL-Scn expression in mice after i.p. LPS; assay type: in vivo, mouse
# Description: To identify elements of the pathway that detect UPEC, we evaluated whether IC could respond to a low dose of LPS (i.p. 1 mg kg^−1), a TLR4 agonist. […] To assess the role of TLR4 further, we inoculated LPS-responsive C3H/HeN (Lps“) and C3H/HeOuJ (Lps”) mice and LPS-defective C3H/HeJ (Lps^d) mice by TU with […] of 5×10^8 CFU ml^−1 (n=15). […] To confirm that kidney expressed TLR4 was critical, we cross-transplanted Lps^d kidneys into nephrectomized Lps^n controls and vice versa. […] Concurrently, TLR4 modulates the burden of urinary infection, by regulating the expression of NGAL-Scn in kidney epithelia.
# [3] = tested on: explanted bladders; assay: NGAL-Scn secretion by bladders explanted from LPS treated mice; assay type: in vivo, mouse
# Description: FIGS. 17A-B. C57/BL6 mice challenged with i.p. LPS (1 mg kg^−1) were explanted and media collected at 12 h and 24 hr of culture. FIG. 17A. […] FIG. 17B. NGAL-Scn was detected by Western blot.
# Because both the bladder and kidney might contribute to uNGAL-Scn expression, we performed in situ hybridization 1 d post-TU challenge with UPEC (20-30 μl of 5×10^8 CFU ml^−1 i.e. ˜1×10^7 total CFU). We found Ngal-Scn message in collecting duct epithelia (FIG. 8H) (1) and in a thin luminal layer of bladder epithelia (FIG. 8I), but the majority of Ngal-Scn transcripts were found in the kidney (FIG. 8J). Moreover, in a controlled experiment, bladders explanted from mice treated with LPS (1 mg kg^−1) secreted approximately 10 ng per bladder over 12 h (FIG. 17), a small percentage of even a single collection of urine (250 ng ul^−1) from the treated mouse. In sum, while many types of genitourinary epithelia can express uNGAL-Scn in response to cystitis, the kidney was a dominant source of NGAL-Scn, even though kidney bacteria fell at, or below, our limit of detection (10^2 CFU kidney^−1; FIG. 18), and an inoculum less than 50 μl is not likely to generate gross vesico-ureteral reflux (VUR) (24).
# [4] = tested on: uropathogenic Escherichia coli strain (CFT073); assay: In vitro growth of UPEC CFT073 in M9 minimal medium or urine; assay type: cell-based; conditions: for bacterial growth after addition of FeCl3 to NGAL: M9 with NGAL 5 μM plus FeCl3 1 mM; for bacterial growth (optical density): M9 minimal medium; for growth of UPEC (OD600) in urine: human urine pH 5.8 (<pH 6.0), NGAL-Scn 5 μM
# Excerpt: To investigate the relationship between NGAL and UPEC a pyelonephritogenic clinical isolate of uropathogenic Escherichia coli, CFT073, was aliquoted in 96 well plates containing M9 minimal medium supplemented with MgCl2 and glucose (see green hashed line: FIG. 1a), and bacterial growth was monitored by spectrophotometry.
# Next, we tested whether NGAL-Scn was sufficient to inhibit urinary bacterial growth. We used UPECs grown to log phase in an iron restricted minimal media (M9), and then subsequently transferred the bacteria into urine or M9. Growth in human urine (<pH 6.0) was similar to growth in acidified M9 (<pH 6.0; FIG. 8C, D).
# A single colony of CFT073 was selected from a plate and grown in M9 to log phase. Bacteria were pelleted and resuspended in either M9 or urine and monitored in a 96 well plate on a Tecan 200 Promicroplate reader for up to 72 h.
# [5] = tested on: Primary Ngal-Luciferase2/mCherry medullary cells; assay: NGAL-Luc2 expression in primary Ngal-Luciferase2/mCherry kidney cells co-cultured with UPEC; assay type: cell-based, mouse; conditions: co-culture with UPEC 3 h; antibiotic added at the time of UPEC; n=3
# Description: […] Alternatively, primary cells were treated with Lipid A and in some cases with NF-kB inhibitors, MG132 (Cayman Chemical), and Analogues 27, 30, and 3121 and Analogue 3022. The Luciferase substrate (Dual-Glo™ Luciferase Assay System; Promega) was added and luminescence from Luc2 and fluorescence from mC (excitation of 500-550 nm and emission of 575-650 nm) were imaged in a Xenogen IVIS optical imaging system.
# Luc2/mC di-fusion reporter mice (8-12 weeks of age) were perfused with PBS and kidney cells were isolated with collagenase (2 mg ml^−1; Sigma), and cultured (1×10^5 well^−1 in 24-well plates; Falcon) in DMEM/F12 medium supplemented with 10% FBS, 1% penicillin-streptomycin, and 46 mg/l L-Valine for 24 h. […] Luciferase substrate (Dual-Glo Luciferase Assay System; Promega) was added and luminescence from Luc2 and fluorescence from mC (excitation 500-550 nm and emission 575-650 nm) were imaged in a Xenogen IVIS optical imaging system.
# [6] = tested on: UPEC iron acquisition genes; assay: Real time PCR of UPEC iron acquisition genes; assay type: cell-based, Escherichia coli
# Excerpt: To determine whether NGAL-Scn induced bacterial iron starvation, we measured a series of iron acquisition systems (9, 10) that are regulated by iron load via fur, including catecholates enterochelin (ent genes) and salmochelin (iro genes), the hydroxamate aerobactin (iuc genes) (11, 12), their receptors, fepA, iroN (13-15), and iutA, respectively, and additionally the heme scavenging chu receptors (15). […] In sum, uNGAL-Scn is expressed within hours of the onset of infection in vivo, and it is required to limit bacterial growth during the early phases of acute cystitis, most likely by blocking iron acquisition.
# Total RNA was isolated with the mirVANA (for eukaryotic cells) or ribopure (for bacteria) RNA extraction kits (Ambion). First strand cDNA was synthesized with Superscript III (Invitrogen). Real-time PCR was performed in a 7500 Fast (Applied Biosystems) with a SYBR green supermix reagent (Fisher) and primers (Table 2) using β-actin (eukaryotic cells) and gapA (for bacteria) as internal controls. Fold amplification of transcripts was measured by the […] method.
# [7] = tested on: Enterochelin:Fe; conditions: pH 4.0; cited from earlier work
# [8] = tested on: Enterochelin:Fe; assay: Enterochelin:Fe capture by NGAL-Scn; assay type: binding; conditions: 3:1 Enterochelin:Fe::Ngal-Scn ratio; washed 5 times on 10 k filter
# Description: . IPTG (0.2 mM final concentration) was added for 5 h. Bacterial pellets were lysed by sonication in lysis buffer, followed by Triton-X 100 (0.5%) treatment for 30 min on ice. Supernatant was collected after high speed centrifugation and filter sterilized (0.45 μm). NGAL-Scn-GST was purified by binding to Glutathione Sepharose beads followed by cleavage of the GST tag with thrombin. Released protein was fractionated by a Sephacryl S100HR column. Enterochelin:Fe capture by NGAL-Scn was tested (Emc Microcollections gmbh) at a 3:1 Enterochelin:Fe::Ngal-Scn ratio.
# [9] = M9 with iron added to match urinary concentration (806 nM)
molecule,measurement,setting,value
Lipid A [LPS],"increase in Ngal expression, Tlr-4-mutant (Lps^d) kidney in wild type (Lps^n) host",[1],4.5±2.6 fold
same,"increase in Ngal expression, wild type (Lps^n) kidney in Tlr-4-mutant (Lps^d) host",[1],15.6±2.3 fold
same,NGAL-Scn in a single collection of urine from the treated mouse,[2]; LPS 1 mg kg^−1,250 ng/µL
same,NGAL-Scn expression in intercalated cells / kidney medulla,"[2]; i.p. LPS 1 mg kg^−1, in situ hybridization",induced NGAL-Scn expression; also recorded: detected in alternating cells
same,NGAL-Scn upregulation in bladder explant media at 12 h,"[3]; C57/BL6, i.p. LPS 1 mg kg^−1, 12 h of culture, vs control, n=10",2 fold
same,NGAL-Scn upregulation in bladder explant media at 24 h,"[3]; C57/BL6, i.p. LPS 1 mg kg^−1, 24 h of culture, vs control, n=10",5 fold
same,NGAL-Scn secreted by explanted bladder,"[3]; LPS 1 mg kg^−1, over 12 h",approximately 10 ng per bladder
"[Cl][Fe]([Cl])[Cl] [FeCl3, reference compound]",bacterial growth after addition of FeCl3 to NGAL,[4],rescued
same,bacterial growth after addition of FeCl3 to NGAL,[4]; listed as iron,reversed
gentamicin,NGAL-Luc2 expression in response to UPEC,[5],blunted
"CC(=O)N(O)CCCCCNC(=O)CCC(=O)N(O)CCCCCNC(=O)CCC(=O)N(O)CCCCCN [DFO, reference compound]",UPEC iron acquisition gene expression with DFO,"[6]; M9 media, DFO 50 μM or 5 μM, n=5",modulated
B1,enterochelin binding at low pH,[7],binds enterochelin even at pH 4.0
same,Enterochelin:Fe binding by coloration,[8],binding detected
same,bacterial growth (optical density),[4]; NGAL 5 μM,greatly inhibited
same,bacterial growth (optical density),"[4]; NGAL 5 μM, listed as mouse (m) NGAL",significantly inhibited
same,bacterial growth (optical density),"[4]; NGAL 5 μM, listed as uNGAL",inhibit growth
same,growth of UPEC in M9 at pH 5.8,"[4]; M9 pH 5.8 (typical urine pH), NGAL 5 μM, n=3",robust inhibition
same,growth of UPEC in M9 at pH 7,"[4]; M9 pH 7, NGAL 5 μM, n=3",reduced (and variable) growth inhibition
same,growth of UPEC (OD600) in urine,[4]; n=3,greatly inhibited
same,growth of UPEC (OD600) in urine,"[4]; n=3, listed as uNGAL-Scn",inhibited the growth
same,EntF activation,[6]; [9],2410 fold
same,iucD activation,[6]; [9],16970 fold
same,iutA activation,[6]; [9],1.9 fold
same,chuS upregulation,"[6]; UPEC in M9, NGAL-Scn 5 μM",26.9 fold
same,entA upregulation,"[6]; UPEC in M9, NGAL-Scn 5 μM",396.2 fold
same,entF upregulation,"[6]; UPEC in M9, NGAL-Scn 5 μM",36294.5 fold
same,fepA upregulation,"[6]; UPEC in M9, NGAL-Scn 5 μM",18.0 fold
same,iroN upregulation,"[6]; UPEC in M9, NGAL-Scn 5 μM",207 fold
same,iucA upregulation,"[6]; UPEC in M9, NGAL-Scn 5 μM",12568.5 fold
same,iucD upregulation,"[6]; UPEC in M9, NGAL-Scn 5 μM",19.0 fold
same,iutA upregulation,"[6]; UPEC in M9, NGAL-Scn 5 μM",13.4 fold
same,"entA, entF, and iha gene expression","[6]; UPEC in M9, NGAL-Scn 5 μM for 30 min, n=5",upregulation
